20 molecules from patent publication US20090060919A1 (AstraZeneca / MedImmune, published 2009) can be followed below.

B1: Antibody 5 IgG (antibody, V domains shown)
VH: QVQLVQSGAEVKKPGATVKLSCKVYGYIFTDYNIYWVRQAPGKGLEWMGLIDPDNGETFYAEKFQGRATMTADTSSDRAYMELTSLTFEDTATYYCATVMGKWIKGGYDYWGRGTLVTVSS
VL: QSVLTQPPSVSGAPGQRVTISCTGSSSNIGAGYDVHWYQQLPGTAPKLLIYDNFNRPSGVPDRFSGSKSGTSASLAIIGLQTEDEADYYCQSYDSTKHTSPFGTGTKLTVL
notes: Whole human IgG (section 1.4: IgG1)
B2: Antibody 4 IgG (antibody, V domains shown)
VH: QVQLVQSGAEVKKPGATVKLSCKVYGYIFTDYNIYWVRQAPGKGLEWMGLIDPDNGETFYAEKFQGRATMTADTSSDRAYMELTSLTFEDTATYYCATVMGKWIKGGYDYWGRGTLVTVSS
VL: QSVLTQPPSVSGAPGQRVTISCTGSSSNIGAGYDVHWYQQLPGTAPKLLIYDNFNRPSGVPDRFSGSKSGTSASLAIIGLQTEDEADYYCQSYDSRGGHSPFGTGTKLTVL
notes: as for B1
B3: Antibody 6 IgG (antibody, V domains shown)
VH: QVQLVQSGAEVKKPGATVKLSCKVYGYIFTDYNIYWVRQAPGKGLEWMGLIDPDNGETFYAEKFQGRATMTADTSSDRAYMELTSLTFEDTATYYCATVMGKWIKGGYDYWGRGTLVTVSS
VL: QSVLTQPPSVSGAPGQRVTISCTGSSSNIGAGYDVHWYQQLPGTAPKLLIYDNFNRPSGVPDRFSGSKSGTSASLAIIGLQTEDEADYYCQSYDSTMRHGPFGTGTKLTVL
notes: as for B1
B4: Antibody 2 scFv (scFv, V domains shown)
VH: QVQLVQSGAEVKKPGATVKLSCKVYGYIFTDYNIYWVRQAPGKGLEWMGLIDPDNGETFYAEKFQGRATMTADTSSDRAYMELTSLTFEDTATYYCATVSLRSAKGGYDYWGRGTLVTVSS
VL: QSVLTQPPSVSGAPGQRVTISCTGSSSNIGAGYDVHWYQQLPGTAPKLLIYDNFNRPSGVPDRFSGSKSGTSASLAIIGLQTEDEADYYCQSYDSSLSGSLFGTGTKLTVL
notes: Purified scFv, non-germlined; not shown: scFv linker and any tags; the libraries are only cited to Vaughan et al. 1996
B5: Antibody 14 scFv (scFv, V domains shown)
VH: QVQLVQSGAEVKKPGATVKLSCKVYGYIFTDYNIYWVRQAPGKGLEWMGLIDPDNGETFYAEKFQGRATMTADTSSDRAYMELTSLTFEDTATYYCATVMGKWIKGGYDYWGRGTLVTVSS
VL: QSVLTQPPSVSGAPGQRVTISCTGSSSNIGAGYDVHWYQQLPGTAPKLLIYDNFNRPSGVPDRFSGSKSGTSASLAIIGLQTEDEADYYCQSYDSHHRHSPFGTGTKLTVL
notes: Purified scFv, non-germlined
B6: Antibody 26 scFv (scFv, V domains shown)
VH: QVQLVQSGAEVKKPGATVKLSCKVYGYIFTDYNIYWVRQAPGKGLEWMGLIDPDNGETFYAEKFQGRATMTADTSSDRAYMELTSLTFEDTATYYCATVSLKEAKGGYDYWGRGTLVTVSS
VL: QSVLTQPPSVSGAPGQRVTISCTGSSSNIGAGYDVHWYQQLPGTAPKLLIYDNFNRPSGVPDRFSGSKSGTSASLAIIGLQTEDEADYYCQSYDSASRHAPFGTGTKLTVL
notes: Purified scFv, non-germlined
B7: Antibody 25 scFv (scFv, V domains shown)
VH: QVQLVQSGAEVKKPGATVKLSCKVYGYIFTDYNIYWVRQAPGKGLEWMGLIDPDNGETFYAEKFQGRATMTADTSSDRAYMELTSLTFEDTATYYCATVTLKSAKGGYDYWGRGTLVTVSS
VL: QSVLTQPPSVSGAPGQRVTISCTGSSSNIGAGYDVHWYQQLPGTAPKLLIYDNFNRPSGVPDRFSGSKSGTSASLAIIGLQTEDEADYYCQSYDSNHKTSPFGTGTKLTVL
notes: Purified scFv, non-germlined
B8: Antibody 17 scFv (scFv, V domains shown)
VH: QVQLVQSGAEVKKPGATVKLSCKVYGYIFTDYNIYWVRQAPGKGLEWMGLIDPDNGETFYAEKFQGRATMTADTSSDRAYMELTSLTFEDTATYYCATVTLKSAKGGYDYWGRGTLVTVSS
VL: QSVLTQPPSVSGAPGQRVTISCTGSSSNIGAGYDVHWYQQLPGTAPKLLIYDNFNRPSGVPDRFSGSKSGTSASLAIIGLQTEDEADYYCQSYDSQSSTSPFGTGTKLTVL
notes: Purified scFv, non-germlined
B9: Antibody 21 scFv (scFv, V domains shown)
VH: QVQLVQSGAEVKKPGATVKLSCKVYGYIFTDYNIYWVRQAPGKGLEWMGLIDPDNGETFYAEKFQGRATMTADTSSDRAYMELTSLTFEDTATYYCATVTLKSAKGGYDYWGRGTLVTVSS
VL: QSVLTQPPSVSGAPGQRVTISCTGSSSNIGAGYDVHWYQQLPGTAPKLLIYDNFNRPSGVPDRFSGSKSGTSASLAIIGLQTEDEADYYCQSYDSSSQLSPFGTGTKLTVL
notes: Purified scFv, non-germlined
B10: Antibody 27 scFv (scFv, V domains shown)
VH: QVQLVQSGAEVKKPGATVKLSCKVYGYIFTDYNIYWVRQAPGKGLEWMGLIDPDNGETFYAEKFQGRATMTADTSSDRAYMELTSLTFEDTATYYCATVSLKEAKGGYDYWGRGTLVTVSS
VL: QSVLTQPPSVSGAPGQRVTISCTGSSSNIGAGYDVHWYQQLPGTAPKLLIYDNFNRPSGVPDRFSGSKSGTSASLAIIGLQTEDEADYYCQSYDSPTQTSPFGTGTKLTVL
notes: Purified scFv, non-germlined
B11: Antibody 28 scFv (scFv, V domains shown)
VH: QVQLVQSGAEVKKPGATVKLSCKVYGYIFTDYNIYWVRQAPGKGLEWMGLIDPDNGETFYAEKFQGRATMTADTSSDRAYMELTSLTFEDTATYYCATVMGKWIKGGYDYWGRGTLVTVSS
VL: QSVLTQPPSVSGAPGQRVTISCTGSSSNIGAGYDVHWYQQLPGTAPKLLIYDNFNRPSGVPDRFSGSKSGTSASLAIIGLQTEDEADYYCQSYDSSSLHSPFGTGTKLTVL
notes: Purified scFv, non-germlined
B12: Antibody 24 scFv (scFv, V domains shown)
VH: QVQLVQSGAEVKKPGATVKLSCKVYGYIFTDYNIYWVRQAPGKGLEWMGLIDPDNGETFYAEKFQGRATMTADTSSDRAYMELTSLTFEDTATYYCATVTLKTAKGGYDYWGRGTLVTVSS
VL: QSVLTQPPSVSGAPGQRVTISCTGSSSNIGAGYDVHWYQQLPGTAPKLLIYDNFNRPSGVPDRFSGSKSGTSASLAIIGLQTEDEADYYCQSYDSRNGYGGFGTGTKLTVL
notes: Purified scFv, non-germlined
B13: Antibody 7 scFv (scFv, V domains shown)
VH: QVQLVQSGAEVKKPGATVKLSCKVYGYIFTDYNIYWVRQAPGKGLEWMGLIDPDNGETFYAEKFQGRATMTADTSSDRAYMELTSLTFEDTATYYCATVTLKSAKGGYDYWGRGTLVTVSS
VL: QSVLTQPPSVSGAPGQRVTISCTGSSSNIGAGYDVHWYQQLPGTAPKLLIYDNFNRPSGVPDRFSGSKSGTSASLAIIGLQTEDEADYYCQSYDSDRRNSPFGTGTKLTVL
notes: Purified scFv, non-germlined
B14: Antibody 3 scFv (scFv, V domains shown)
VH: QVQLVQSGAEVKKPGATVKLSCKVYGYIFTDYNIYWVRQAPGKGLEWMGLIDPDNGETFYAEKFQGRATMTADTSSDRAYMELTSLTFEDTATYYCATVMGKWIKGGYDYWGRGTLVTVSS
VL: QSVLTQPPSVSGAPGQRVTISCTGSSSNIGAGYDVHWYQQLPGTAPKLLIYDNFNRPSGVPDRFSGSKSGTSASLAIIGLQTEDEADYYCQSYDSTFNHAPFGTGTKLTVL
notes: as for B4
B15: Antibody 22 scFv (scFv, V domains shown)
VH: QVQLVQSGAEVKKPGATVKLSCKVYGYIFTDYNIYWVRQAPGKGLEWMGLIDPDNGETFYAEKFQGRATMTADTSSDRAYMELTSLTFEDTATYYCATVTLKSAKGGYDYWGRGTLVTVSS
VL: QSVLTQPPSVSGAPGQRVTISCTGSSSNIGAGYDVHWYQQLPGTAPKLLIYDNFNRPSGVPDRFSGSKSGTSASLAIIGLQTEDEADYYCQSYDSSGGYAPFGTGTKLTVL
notes: Purified scFv, non-germlined
B16: Antibody 9 scFv (scFv, V domains shown)
VH: QVQLVQSGAEVKKPGATVKLSCKVYGYIFTDYNIYWVRQAPGKGLEWMGLIDPDNGETFYAEKFQGRATMTADTSSDRAYMELTSLTFEDTATYYCATVTLRSAKGGYDYWGRGTLVTVSS
VL: QSVLTQPPSVSGAPGQRVTISCTGSSSNIGAGYDVHWYQQLPGTAPKLLIYDNFNRPSGVPDRFSGSKSGTSASLAIIGLQTEDEADYYCQSYDSPSSTSPFGTGTKLTVL
notes: Purified scFv, non-germlined
B17: Antibody 23 scFv (scFv, V domains shown)
VH: QVQLVQSGAEVKKPGATVKLSCKVYGYIFTDYNIYWVRQAPGKGLEWMGLIDPDNGETFYAEKFQGRATMTADTSSDRAYMELTSLTFEDTATYYCATVMGKWIKGGYDYWGRGTLVTVSS
VL: QSVLTQPPSVSGAPGQRVTISCTGSSSNIGAGYDVHWYQQLPGTAPKLLIYDNFNRPSGVPDRFSGSKSGTSASLAIIGLQTEDEADYYCQSYDSHHLYSSFGTGTKLTVL
notes: Purified scFv, non-germlined
B18: Antibody 10 scFv (scFv, V domains shown)
VH: QVQLVQSGAEVKKPGATVKLSCKVYGYIFTDYNIYWVRQAPGKGLEWMGLIDPDNGETFYAEKFQGRATMTADTSSDRAYMELTSLTFEDTATYYCATVSLRAAKGGYDYWGRGTLVTVSS
VL: QSVLTQPPSVSGAPGQRVTISCTGSSSNIGAGYDVHWYQQLPGTAPKLLIYDNFNRPSGVPDRFSGSKSGTSASLAIIGLQTEDEADYYCQSYDSEQELAPFGTGTKLTVL
notes: Purified scFv, non-germlined
B19: Antibody 15 scFv (scFv, V domains shown)
VH: QVQLVQSGAEVKKPGATVKLSCKVYGYIFTDYNIYWVRQAPGKGLEWMGLIDPDNGETFYAEKFQGRATMTADTSSDRAYMELTSLTFEDTATYYCATVTLKTAKGGYDYWGRGTLVTVSS
VL: QSVLTQPPSVSGAPGQRVTISCTGSSSNIGAGYDVHWYQQLPGTAPKLLIYDNFNRPSGVPDRFSGSKSGTSASLAIIGLQTEDEADYYCQSYDSHKGYGGFGTGTKLTVL
notes: Purified scFv, non-germlined
B20: Antibody 18 scFv (scFv, V domains shown)
VH: QVQLVQSGAEVKKPGATVKLSCKVYGYIFTDYNIYWVRQAPGKGLEWMGLIDPDNGETFYAEKFQGRATMTADTSSDRAYMELTSLTFEDTATYYCATVLLRSAKGGYDYWGRGTLVTVSS
VL: QSVLTQPPSVSGAPGQRVTISCTGSSSNIGAGYDVHWYQQLPGTAPKLLIYDNFNRPSGVPDRFSGSKSGTSASLAIIGLQTEDEADYYCQSYDSHLQLSPFGTGTKLTVL
notes: Purified scFv, non-germlined

T1 sequence (P01854 other isoform, or with tags, fused parts or gaps): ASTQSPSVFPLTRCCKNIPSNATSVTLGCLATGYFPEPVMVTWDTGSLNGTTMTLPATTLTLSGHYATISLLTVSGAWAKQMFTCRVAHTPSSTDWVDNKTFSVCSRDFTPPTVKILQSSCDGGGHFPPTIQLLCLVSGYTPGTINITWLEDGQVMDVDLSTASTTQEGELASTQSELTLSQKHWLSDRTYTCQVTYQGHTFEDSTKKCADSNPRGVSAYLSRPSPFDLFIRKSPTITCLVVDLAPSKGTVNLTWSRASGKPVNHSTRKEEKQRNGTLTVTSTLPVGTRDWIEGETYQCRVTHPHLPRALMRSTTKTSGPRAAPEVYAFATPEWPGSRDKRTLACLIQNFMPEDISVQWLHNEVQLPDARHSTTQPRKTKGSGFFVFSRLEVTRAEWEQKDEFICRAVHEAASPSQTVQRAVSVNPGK

The first experiment concerns the target T1, human IgEλ (U266 derived) (human, UniProt P01854-1 1-428).
T1 construct: Whole IgE purified from U266 cells (Ikeyama et al. 1986); labelled with europium cryptate or biotin in some assays; also called human IgE (U266-derived); human IgE lambda
The experiment can be described thus: SPR (BIAcore 2000): IgG captured on protein G', IgE as analyte, bivalent analyte model; geomean. On the technique in general: Surface plasmon resonance follows binding to a sensor surface in real time, without labels.
Experimental: In brief, Protein G′ (Sigma Aldrich, P4689) was covalently coupled to the surface of a CM5 sensor chip using standard amine coupling reagents according to manufacturer's instructions (BIAcore). […] The resulting sensorgrams were evaluated using BIA evaluation 3.1 software and fitted to a bivalent analyte model, to provide relative binding data.
For the molecule B1, the Kd was 2.4 nM.

B2: the Kd amounted to 2.1 nM.

Turning to B3, the Kd stood at 2.1 nM.

A further experiment concerns the target T1, human IgEλ (U266 derived). The experiment can be described thus: HTRF competition: scFv against Eu-cryptate human IgE binding to human FcεRI-Fc. Background: TR-FRET usually uses a lanthanide donor and a delayed reading to cut background.
As a reminder, the IC50 is the midpoint of a concentration-inhibition curve. Lower therefore signals greater potency. The molecule B4 had an IC50 of 28 nM.

Take B5: the IC50 was found to be 8 nM.

Molecule B6 displayed an IC50 of 12 nM.

B7 returned an IC50 of 8 nM.

Molecule B8 yielded an IC50 of 6 nM.

B9 returned an IC50 of 6 nM.

In the case of B10, the IC50 was 9 nM.

Take B11: the IC50 worked out at 1 nM.

In turn, B12 displayed an IC50 of 9 nM.

On to B13, for which the IC50 worked out at 9 nM.

For the molecule B14, the IC50 is 5 nM.

With B15, the IC50 amounted to 6 nM.

Take B16: the IC50 was 9 nM.

In turn, B17 displayed an IC50 of 1 nM.

With B18, the IC50 came out at 10 nM.

Molecule B19 registered an IC50 of 7 nM.

B20 registered an IC50 of 11 nM.

For a further experiment, the target named is T1, human IgEλ (U266 derived). Description: cell-based or functional assay.
Take B1: the “RBL-ER51 calcium signalling IC50 (Geomean), Human IgE” value (“RBL-ER51 calcium signalling IC50” for short) was determined as 0.091 nM.

For B2, the “RBL-ER51 calcium signalling IC50” value is 0.088 nM.

As to B3, the “RBL-ER51 calcium signalling IC50” value came to 0.096 nM.
